Source: article PMC7367873, “Dissecting the sequence determinants for dephosphorylation by the catalytic subunits of phosphatases PP1 and PP2A” (Nature Communications, 2020)

B1: ZFP36L2 (protein, UniProt P47974 1-494, looked up)
mRNA decay activator protein …: MSTTLLSAFYDVDFLCKTEKSLANLNLNNMLDKKAVGTPVAAAPSSGFAPGFLRRHSASNLHALAHPAPSPGSCSPKFPGAANGSSCGSAAAGGPTSYGTLKEPSGGGGTALLNKENKFRDRSFSENGDRSQHLLHLQQQQKGGGGSQINSTRYKTELCRPFEESGTCKYGEKCQFAHGFHELRSLTRHPKYKTELCRTFHTIGFCPYGPRCHFIHNADERRPAPSGGASGDLRAFGTRDALHLGFPREPRPKLHHSLSFSGFPSGHHQPPGGLESPLLLDSPTSRTPPPPSCSSASSCSSSASSCSSASAASTPSGAPTCCASAAAAAAAALLYGTGGAEDLLAPGAPCAACSSASCANNAFAFGPELSSLITPLAIQTHNFAAVAAAAYYRSQQQQQQQGLAPPAQPPAPPSATLPAGAAAPPSPPFSFQLPRRLSDSPVFDAPPSPPDSLSDRDSYLSGSLSSGSLSGSESPSLDPGRRLPIFSRLSISDD
B2: RAPGEF2 (protein, UniProt Q9Y4G8 1-1499, looked up)
Rap guanine nucleotide …: MKPLAIPANHGVMGQQEKHSLPADFTKLHLTDSLHPQVTHVSSSHSGCSITSDSGSSSLSDIYQATESEAGDMDLSGLPETAVDSEDDDDEEDIERASDPLMSRDIVRDCLEKDPIDRTDDDIEQLLEFMHQLPAFANMTMSVRRELCAVMVFAVVERAGTIVLNDGEELDSWSVILNGSVEVTYPDGKAEILCMGNSFGVSPTMDKEYMKGVMRTKVDDCQFVCIAQQDYCRILNQVEKNMQKVEEEGEIVMVKEHRELDRTGTRKGHIVIKGTSERLTMHLVEEHSVVDPTFIEDFLLTYRTFLSSPMEVGKKLLEWFNDPSLRDKVTRVVLLWVNNHFNDFEGDPAMTRFLEEFENNLEREKMGGHLRLLNIACAAKAKRRLMTLTKPSREAPLPFILLGGSEKGFGIFVDSVDSGSKATEAGLKRGDQILEVNGQNFENIQLSKAMEILRNNTHLSITVKTNLFVFKELLTRLSEEKRNGAPHLPKIGDIKKASRYSIPDLAVDVEQVIGLEKVNKKSKANTVGGRNKLKKILDKTRISILPQKPYNDIGIGQSQDDSIVGLRQTKHIPTALPVSGTLSSSNPDLLQSHHRILDFSATPDLPDQVLRVFKADQQSRYIMISKDTTAKEVVIQAIREFAVTATPDQYSLCEVSVTPEGVIKQRRLPDQLSKLADRIQLSGRYYLKNNMETETLCSDEDAQELLRESQISLLQLSTVEVATQLSMRNFELFRNIEPTEYIDDLFKLRSKTSCANLKRFEEVINQETFWVASEILRETNQLKRMKIIKHFIKIALHCRECKNFNSMFAIISGLNLAPVARLRTTWEKLPNKYEKLFQDLQDLFDPSRNMAKYRNVLNSQNLQPPIIPLFPVIKKDLTFLHEGNDSKVDGLVNFEKLRMIAKEIRHVGRMASVNMDPALMFRTRKKKWRSLGSLSQGSTNATVLDVAQTGGHKKRVRRSSFLNAKKLYEDAQMARKVKQYLSNLELEMDEESLQTLSLQCEPATNTLPKNPGDKKPVKSETSPVAPRAGSQQKAQSLPQPQQQPPPAHKINQGLQVPAVSLYPSRKKVPVKDLPPFGINSPQALKKILSLSEEGSLERHKKQAEDTISNASSQLSSPPTSPQSSPRKGYTLAPSGTVDNFSDSGHSEISSRSSIVSNSSFDSVPVSLHDERRQRHSVSIVETNLGMGRMERRTMIEPDQYSLGSYAPMSEGRGLYATATVISSPSTEELSQDQGDRASLDAADSGRGSWTSCSSGSHDNIQTIQHQRSWETLPFGHTHFDYSGDPAGLWASSSHMDQIMFSDHSTKYNRQNQSRESLEQAQSRASWASSTGYWGEDSEGDTGTIKRRGGKDVSIEAESSSLTSVTTEETKPVPMPAHIAVASSTTKGLIARKEGRYREPPPTPPGYIGIPITDFPEGHSHPARKPPDYNVALQRSRMVARSSDTAGPSSVQQPHGHPTSSRPVNKPQWHKPNESDPRLAPYQSQGFSTEEDEDEQVSAV
B3: CCDC6 (protein, UniProt Q16204 2-474, looked up)
Coiled-coil domain-containing …: ADSASESDTDGAGGNSSSSAAMQSSCSSTSGGGGGGGGGGGGGKSGGIVISPFRLEELTNRLASLQQENKVLKIELETYKLKCKALQEENRDLRKASVTIQARAEQEEEFISNTLFKKIQALQKEKETLAVNYEKEEEFLTNELSRKLMQLQHEKAELEQHLEQEQEFQVNKLMKKIKKLENDTISKQLTLEQLRREKIDLENTLEQEQEALVNRLWKRMDKLEAEKRILQEKLDQPVSAPPSPRDISMEIDSPENMMRHIRFLKNEVERLKKQLRAAQLQHSEKMAQYLEEERHMREENLRLQRKLQREMERREALCRQLSESESSLEMDDERYFNEMSAQGLRPRTVSSPIPYTPSPSSSRPISPGLSYASHTVGFTPPTSLTRAGMSYYNSPGLHVQHMGTSHGITRPSPRRSNSPDKFKRPTPPPSPNTQTPVQPPPPPPPPPMQPTVPSAATSQPTPSQHSAHPSSQP
B4: IRS2 (protein, UniProt Q9Y4H2 1-1338, looked up)
Insulin receptor substrate 2: MASPPRHGPPGPASGDGPNLNNNNNNNNHSVRKCGYLRKQKHGHKRFFVLRGPGAGGDEATAGGGSAPQPPRLEYYESEKKWRSKAGAPKRVIALDCCLNINKRADAKHKYLIALYTKDEYFAVAAENEQEQEGWYRALTDLVSEGRAAAGDAPPAAAPAASCSASLPGALGGSAGAAGAEDSYGLVAPATAAYREVWQVNLKPKGLGQSKNLTGVYRLCLSARTIGFVKLNCEQPSVTLQLMNIRRCGHSDSFFFIEVGRSAVTGPGELWMQADDSVVAQNIHETILEAMKALKELFEFRPRSKSQSSGSSATHPISVPGARRHHHLVNLPPSQTGLVRRSRTDSLAATPPAAKCSSCRVRTASEGDGGAAAGAAAAGARPVSVAGSPLSPGPVRAPLSRSHTLSGGCGGRGSKVALLPAGGALQHSRSMSMPVAHSPPAATSPGSLSSSSGHGSGSYPPPPGPHPPLPHPLHHGPGQRPSSGSASASGSPSDPGFMSLDEYGSSPGDLRAFCSHRSNTPESIAETPPARDGGGGGEFYGYMTMDRPLSHCGRSYRRVSGDAAQDLDRGLRKRTYSLTTPARQRPVPQPSSASLDEYTLMRATFSGSAGRLCPSCPASSPKVAYHPYPEDYGDIEIGSHRSSSSNLGADDGYMPMTPGAALAGSGSGSCRSDDYMPMSPASVSAPKQILQPRAAAAAAAAVPSAGPAGPAPTSAAGRTFPASGGGYKASSPAESSPEDSGYMRMWCGSKLSMEHADGKLLPNGDYLNVSPSDAVTTGTPPDFFSAALHPGGEPLRGVPGCCYSSLPRSYKAPYTCGGDSDQYVLMSSPVGRILEEERLEPQATPGPSQAASAFGAGPTQPPHPVVPSPVRPSGGRPEGFLGQRGRAVRPTRLSLEGLPSLPSMHEYPLPPEPKSPGEYINIDFGEPGARLSPPAPPLLASAASSSSLLSASSPASSLGSGTPGTSSDSRQRSPLSDYMNLDFSSPKSPKPGAPSGHPVGSLDGLLSPEASSPYPPLPPRPSASPSSSLQPPPPPPAPGELYRLPPASAVATAQGPGAASSLSSDTGDNGDYTEMAFGVAATPPQPIAAPPKPEAARVASPTSGVKRLSLMEQVSGVEAFLQASQPPDPHRGAKVIRADPQGGRRRHSSETFSSTTTVTPVSPSFAHNPKRHNSASVENVSLRKSSEGGVGVGPGGGDEPPTSPRQLQPAPPLAPQGRPWTPGQPGGLVGCPGSGGSPMRRETSAGFQNGLNYIAIDVREEPGLPPQPQPPPPPLPQPGDKSSWGRTRSLGGLISAVGVGSTGGGCGGPGPGALPPANTYASIDFLSHHLKEATIVKE

test system: GFP-14-3-3β and its binding proteins; assay: GFP-14-3-3β co-IP with LC-MS/MS label-free quantification, untreated versus PP1c-treated; design: species or system human; conditions: pairwise comparison PP1 vs untreated, student's t-test; 3 replicates each; LC-MS/MS label-free quantification

Molecule | Difference (log2), PP1 vs untreated
B1 | -3.391 log2
B2 | -3.585 log2
B3 | -3.654 log2
B4 | -3.665 log2

test system: GFP-14-3-3β; assay: GFP-14-3-3β co-IP with LC-MS/MS, untreated GFP-14-3-3β versus GFP control (14-3-3 interactome); type: binding, human; conditions: pairwise comparison untreated GFP-14-3-3β vs GFP, student's t-test; 3 replicates each; LC-MS/MS label-free quantification

Molecule | Difference (log2), untreated vs GFP
B1 | 3.556 log2
B2 | 2.788 log2
B3 | 4.515 log2
B4 | 7.914 log2
